Assay results published in publication PMC5624926.

Legend:
[1] = molecular target: dCD22_(20–687) (human) (UniProt P20273); experiment: ITC; Auto-ITC200; 5 μM CD22 in the cell, 50 μM Fab in the syringe; 35 °C; triplicate
[2] = molecular target: CD22_(20–687)F (human) (UniProt P20273); experiment: as above
[3] = molecular target: dCD22_(20–687) (human) (UniProt P20273); experiment: BLI; Octet RED96; CD22_(20–687) forms loaded on Ni-NTA biosensors; Fab in solution 500 to 62.5 nM; 1x PBS pH 7.4, 0.002% Tween, 0.01% BSA; 1:1 fit; triplicate
[4] = molecular target: CD22_(20–687)F (human) (UniProt P20273); experiment: as above

Kd [1]: 58 nM
Kd [2]: 188 nM
Kd [3]: 24 nM
Kd [4]: 327 nM
B1: epratuzumab Fab (Fab, V domains shown)
VH: QVQLVQSGAEVKKPGSSVKVSCKASGYTFTSYWLHWVRQAPGQGLEWIGYINPRNDYTEYNQNFKDKATITADESTNTAYMELSSLRSEDTAFYFCARRDITTFYWGQGTTVTVSS
VL: DIQLTQSPSSLSASVGDRVTMSCKSSQSVLYSANHKNYLAWYQQKPGKAPKLLIYWASTRESGVPSRFSGSGSGTDFTLTISSLQPEDIATYYCHQYLSSWTFGGGTKLEIK
